Experiments:
Test in all cases: pull-down binding Z-score (relative to library population); higher = stronger binding
Conditions in all cases: RNA library: Library-2
TO-N3 (biotin conjugate) = system: TO-N3 (biotin conjugate)
Procedure, shortened: (§1)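 Cy5- or Cy3-end-labelled RNA library (1 μg) was heat-folded in phosphate/NaCl/KCl buffer and incubated 60 min at 25 °C with streptavidin beads carrying 100 pmol biotin-conjugated small molecule. After three washes, bound RNA was eluted in hot SDS and hybridised 20 h at 55.5 °C to a DNA barcode microarray. Binding was scored by subtracting a beads-only control, averaging barcoded replicate probes after dropping highest and lowest, and converting to a Z-score against library mean and standard deviation.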

[1] = system: TO-3-N3 (biotin conjugate)
Procedure, shortened: as §1

[2] = system: TO-N3-2 (biotin conjugate)
Procedure, shortened: as §1

[3] = system: TO-3-N3-2 (biotin conjugate)
Procedure, shortened: as §1

UAGCUGUACCCUAUAAUAUGAGAGUUAUACAUUUUGGUGCUGGUUCUGAUAAAGGAGUUGCACCAGGUACAGCUG
pull-down binding Z-score (TO-N3 (biotin conjugate)): -0.515 | pull-down binding Z-score [1]: -0.371 | pull-down binding Z-score [2]: -0.588 | pull-down binding Z-score [3]: -0.121

UAGCUUGUUUUGUGCUUGCUG [SHAPE_invivo_SARS-CoV-2_Motif_507]
pull-down binding Z-score (TO-N3 (biotin conjugate)): -0.0778 | pull-down binding Z-score [1]: 0.134 | pull-down binding Z-score [2]: -0.699 | pull-down binding Z-score [3]: -0.546

UAGGCACGGCACUUGUGAAAGAUCAGAAGCUGGUGUUUG
pull-down binding Z-score (TO-N3 (biotin conjugate)): 0.0405 | pull-down binding Z-score [1]: -0.0752 | pull-down binding Z-score [2]: 0.362 | pull-down binding Z-score [3]: -0.246

UAGGUGUUUUAAUGUCUAAUUUAGGCAUGCCUUCUUACUGUACUGGUUACAGAGAAGGCUAUUUGAACUCUA
pull-down binding Z-score (TO-N3 (biotin conjugate)): -0.806 | pull-down binding Z-score [1]: -0.861 | pull-down binding Z-score [2]: -0.982 | pull-down binding Z-score [3]: -0.358

UAGGUGUUUUAAUGUCUAAUUUAGGCAUGCCUUCUUACUGUACUGGUUACAGAGAAGGCUAUUUGAACUCUACUAAUGUCACUAUUGCAACCUA
pull-down binding Z-score (TO-N3 (biotin conjugate)): -0.0965 | pull-down binding Z-score [1]: -0.221 | pull-down binding Z-score [2]: -0.12 | pull-down binding Z-score [3]: 0.0583

UAGGUUUUUCUACAGGUGUUAACCUA [SHAPE_invitro_SARS-CoV-2_Motif_336]
pull-down binding Z-score (TO-N3 (biotin conjugate)): -0.981 | pull-down binding Z-score [1]: -0.603 | pull-down binding Z-score [2]: -0.856 | pull-down binding Z-score [3]: -0.426

UAGUACAACAGGAGUCACCUUUUGUUAUGAUGUCAGCACCACCUGCUCAGUAUGAACUUAAGCAUGGUACAUUUACUUGUGCUA
pull-down binding Z-score (TO-N3 (biotin conjugate)): -0.168 | pull-down binding Z-score [1]: -0.521 | pull-down binding Z-score [2]: -0.0314 | pull-down binding Z-score [3]: -0.518

UAGUACAUUUAUUAGUGAUGAAGUUGCGAGAGACUUGUCACUACAGUUUAAAAGACCAAUAAAUCCUACUG [SHAPE_invivo_SARS-CoV-2_Multi_21_ComplexLevel_1]
pull-down binding Z-score (TO-N3 (biotin conjugate)): 0.716 | pull-down binding Z-score [1]: 0.561 | pull-down binding Z-score [2]: 0.172 | pull-down binding Z-score [3]: 0.312

UAGUAGCUGGUGGUAUUGUAGCUAUCGUAGUAACAUGCCUUGCCUACUA [DMSMaPseq_invitro_SARS-CoV-2_Motif_172]
pull-down binding Z-score (TO-N3 (biotin conjugate)): -0.871 | pull-down binding Z-score [1]: -0.611 | pull-down binding Z-score [2]: -1.01 | pull-down binding Z-score [3]: -0.39

UAGUCCUGUUGCACUACGACAGAUGUCUUGUGCUGCCGGUACUA [DMSMaPseq_invitro_SARS-CoV-2_Motif_226]
pull-down binding Z-score (TO-N3 (biotin conjugate)): -0.821 | pull-down binding Z-score [1]: -0.727 | pull-down binding Z-score [2]: -0.478 | pull-down binding Z-score [3]: -0.381

UAGUGAUGAAGUUGCGAGAGACUUGUCACUA
pull-down binding Z-score (TO-N3 (biotin conjugate)): -0.688 | pull-down binding Z-score [1]: -0.736 | pull-down binding Z-score [2]: -0.661 | pull-down binding Z-score [3]: -0.441

UAGUGCAAAGAAUAGAGCUCGCACCGUAGCUGGUGUCUCUAUCUGUAGUACUA
pull-down binding Z-score (TO-N3 (biotin conjugate)): -0.0718 | pull-down binding Z-score [1]: -0.167 | pull-down binding Z-score [2]: 0.18 | pull-down binding Z-score [3]: 0.188

UAGUGCUAUGCAGACAAUGCUUUUCACUA
pull-down binding Z-score (TO-N3 (biotin conjugate)): -1.14 | pull-down binding Z-score [1]: -0.863 | pull-down binding Z-score [2]: -0.838 | pull-down binding Z-score [3]: -0.341

UAGUGUUACCACAGAAAUUCUACCAGUGUCUAUGACCAAGACAUCAGUAGAUUGUACAAUGUACAUUUGUGGUGAUUCAACUG [DMSMaPseq_invitro_SARS-CoV-2_Multi_72_ComplexLevel_1]
pull-down binding Z-score (TO-N3 (biotin conjugate)): 0.228 | pull-down binding Z-score [1]: 0.214 | pull-down binding Z-score [2]: -0.417 | pull-down binding Z-score [3]: 0.267

UAGUUACACGGUGUUUAAACCGUGUUUGUACUA [SHAPE_invivo_SARS-CoV-2_Motif_139]
pull-down binding Z-score (TO-N3 (biotin conjugate)): -1.15 | pull-down binding Z-score [1]: -0.83 | pull-down binding Z-score [2]: -1.11 | pull-down binding Z-score [3]: -0.496

UAGUUUUAAGGAAUUA
pull-down binding Z-score (TO-N3 (biotin conjugate)): -1.1 | pull-down binding Z-score [1]: -0.826 | pull-down binding Z-score [2]: -1.56 | pull-down binding Z-score [3]: -0.519

UAUAAAGUUUAUUAUGGUAAUGCUUUAGAUCAAGCCAUUUCCAUGUGGGCUCUUAUA
pull-down binding Z-score (TO-N3 (biotin conjugate)): -0.806 | pull-down binding Z-score [1]: -0.704 | pull-down binding Z-score [2]: -0.695 | pull-down binding Z-score [3]: -0.133

UAUAACAAUACUAGAUGGAAUUUCACAGUAUUCACUGAGACUCAUUGAUGCUAUGAUGUUCACAUCUGAUUUGGCUACUAACAAUCUAGUUGUA
pull-down binding Z-score (TO-N3 (biotin conjugate)): -0.688 | pull-down binding Z-score [1]: -0.682 | pull-down binding Z-score [2]: -1.1 | pull-down binding Z-score [3]: -0.178

UAUAAUAUGAGAGUUAUA
pull-down binding Z-score (TO-N3 (biotin conjugate)): -0.233 | pull-down binding Z-score [1]: -0.11 | pull-down binding Z-score [2]: -0.882 | pull-down binding Z-score [3]: -0.355

UAUAUGCCUUAUUUCUUUACUUUAUUGCUACAAUUGUGUACUUUUACUAGAAGUACAAAUUCUAGAAUUAAAGCAUCUA [DMSMaPseq_invitro_SARS-CoV-2_Motif_128]
pull-down binding Z-score (TO-N3 (biotin conjugate)): -0.348 | pull-down binding Z-score [1]: -0.237 | pull-down binding Z-score [2]: -0.67 | pull-down binding Z-score [3]: 0.0402

UAUCCAAACGCAAGCUUCGAUAAUUUUAAGUUUGUAUGUGAUA [DMSMaPseq_invitro_SARS-CoV-2_Motif_115]
pull-down binding Z-score (TO-N3 (biotin conjugate)): -0.225 | pull-down binding Z-score [1]: 0.127 | pull-down binding Z-score [2]: -0.609 | pull-down binding Z-score [3]: 0.145

UAUGAGGUUUAGAAGAGCUUUUGGUGAAUACAGUCAUGUAGUUGCCUUUAAUACUUUACUAUUCCUUAUG
pull-down binding Z-score (TO-N3 (biotin conjugate)): -0.62 | pull-down binding Z-score [1]: -0.502 | pull-down binding Z-score [2]: -0.84 | pull-down binding Z-score [3]: -0.231

UAUGUCUGAAGCAAAAUGUUGGACUGAGACUGACCUUACUAAAGGACCUCAUGAAUUUUGCUCUCAACAUA
pull-down binding Z-score (TO-N3 (biotin conjugate)): 0.246 | pull-down binding Z-score [1]: 0.0274 | pull-down binding Z-score [2]: -0.671 | pull-down binding Z-score [3]: -0.402

UAUUACAGAUCUUUACCAGGAGUUUUCUGUGGUG
pull-down binding Z-score (TO-N3 (biotin conjugate)): -0.72 | pull-down binding Z-score [1]: -0.624 | pull-down binding Z-score [2]: -0.779 | pull-down binding Z-score [3]: -0.388

UAUUAUUGCUAUGUCUGCUUUUGCAAUGAUG
pull-down binding Z-score (TO-N3 (biotin conjugate)): -1.29 | pull-down binding Z-score [1]: -1.09 | pull-down binding Z-score [2]: -1.18 | pull-down binding Z-score [3]: -0.373

UAUUGAAAUCAAUA
pull-down binding Z-score (TO-N3 (biotin conjugate)): -0.987 | pull-down binding Z-score [1]: -0.553 | pull-down binding Z-score [2]: -1.72 | pull-down binding Z-score [3]: -0.77

UAUUUCAUAACAGAUGCGCAAACAGGUUCAUCUAAGUGUGUGUGUUCUGUUAUUGAUUUA
pull-down binding Z-score (TO-N3 (biotin conjugate)): -1.16 | pull-down binding Z-score [1]: -1.06 | pull-down binding Z-score [2]: -0.209 | pull-down binding Z-score [3]: -0.188

UAUUUGCCUAUAGAUA
pull-down binding Z-score (TO-N3 (biotin conjugate)): -0.128 | pull-down binding Z-score [1]: 0.0252 | pull-down binding Z-score [2]: -0.821 | pull-down binding Z-score [3]: -0.192

UCAAAAAGAAAUUGA [SHAPE_invivo_SARS-CoV-2_Motif_472]
pull-down binding Z-score (TO-N3 (biotin conjugate)): -0.459 | pull-down binding Z-score [1]: -0.145 | pull-down binding Z-score [2]: -0.626 | pull-down binding Z-score [3]: 0.153

UCAAGACUAUUCAACCAAGGGUUGAAAAGAAAAAGCUUGA [SHAPE_invivo_SARS-CoV-2_Motif_22]
pull-down binding Z-score (TO-N3 (biotin conjugate)): -0.551 | pull-down binding Z-score [1]: -0.217 | pull-down binding Z-score [2]: -0.823 | pull-down binding Z-score [3]: -0.14

UCAAUUAUUAUAAGAAAGUUGA
pull-down binding Z-score (TO-N3 (biotin conjugate)): 0.0296 | pull-down binding Z-score [1]: 0.154 | pull-down binding Z-score [2]: -0.425 | pull-down binding Z-score [3]: -0.0592

UCACACUAAAAAGUGGA
pull-down binding Z-score (TO-N3 (biotin conjugate)): -1.1 | pull-down binding Z-score [1]: -0.691 | pull-down binding Z-score [2]: -1.15 | pull-down binding Z-score [3]: -0.477

UCACACUCAAAGGCGGUGCACCAACAAAGGUUACUUUUGGUGAUGACACUGUGAUAGAAGUGCAAGGUUACAAGAGUGUGAAUAUCACUUUUGAACUUGAUGA [DMSMaPseq_invitro_SARS-CoV-2_Multi_10_ComplexLevel_1]
pull-down binding Z-score (TO-N3 (biotin conjugate)): 0.304 | pull-down binding Z-score [1]: 0.0984 | pull-down binding Z-score [2]: 0.257 | pull-down binding Z-score [3]: -0.184

From the supplement of paper PMC11865577
